According to patent publication US6544504B1, “Combined use of interleukin 10 and methotrexate for immuno-modulatory therapy” (Schering Corporation, priority 1999, dated 2003):
“Also recorded” adds a separate entry of the source.

Assays:
Type in all cases: in vivo, human
[1] = test system: patients with active rheumatoid arthritis; assay: Safety and tolerance study of IL-10 plus stable MTX in active rheumatoid arthritis
Experimental: (§1) A multinational, multicenter, sequentially randomized, double-blind, placebo-controlled, rising multiple-dose study of IL-10 plus methotrexate (MTX) treatment was completed in patients with active rheumatoid arthritis.
(§2) Fifty patients were to receive one of five dosing regimens of IL-10 (SC) (1 μg/kg daily, 4 μg/kg daily, 8 μg/kg three times a week [TIW], 8 μg/kg daily and 20 μg/kg TIW) or placebo for 28 days, in addition to stable dosing with MTX (Treatment Phase). The patients were followed for 8 weeks after the end of IL-10 dosing (Follow-up Phase). Patients received MTX at therapeutic doses for at least 4 months prior to study entry. The dose of MTX was 12.5-25 mg/week (oral, subcutaneous or intramuscular) and remained constant throughout the study (Screening, Treatment and Follow-up Phases).
(§3) Patients were sequentially enrolled into the study in dose cohorts starting with the lowest dose of IL-10. Safety was assessed for each dose level prior to progressing to the next higher dose. Ten patients were assessed at each of the IL-10 dose cohorts: 8 received IL-10 and 2 received placebo (4:1). There was no replacement of patients.
The primary objective was to evaluate, in a dose-escalating manner, the safety and tolerance of IL-10 (SC) therapy given daily or TIW plus MTX (oral/intramuscular/SC) over a 28 day period to patients with active rheumatoid arthritis. The secondary objectives were to evaluate the effect of IL-10 on measures of rheumatoid arthritis Disease Activity, and to determine changes in the circulating levels of soluble p55 and p75 TNF receptors and IL-1 receptor antagonist. Protocol-defined responders were defined as those patients with at least 20% ACR criteria, i.e. at least 20% improvement in number of tender joints, number of swollen joints and in at least 3 of 5 RA Disease Activity measures (i.e. subject's assessment of pain, disease activity or physical function and physician's global assessment of disease activity. […]

[2] = test system: patients with active rheumatoid arthritis; assay: Rheumatoid arthritis Disease Activity / ACR response in the IL-10 plus MTX study
Experimental: as §1, §2, §3
The primary objective was to evaluate, in a dose-escalating manner, the safety and tolerance of IL-10 (SC) therapy given daily or TIW plus MTX (oral/intramuscular/SC) over a 28 day period to patients with active rheumatoid arthritis. The secondary objectives were to evaluate the effect of IL-10 on measures of rheumatoid arthritis Disease Activity, and to determine changes in the circulating levels of soluble p55 and p75 TNF receptors and IL-1 receptor antagonist. Protocol-defined responders were defined as those patients with at least 20% ACR criteria, i.e. at least 20% improvement in number of tender joints, number of swollen joints and in at least 3 of 5 RA Disease Activity measures (i.e. subject's assessment of pain, disease activity or physical function and physician's global assessment of disease activity.
Fifty patients were enrolled and sequentially randomized to receive one of the five dosing regimens of IL-10 (SC) (1 μg/kg daily, 4 μg/kg daily, 8 μg/kg TIW, 8 μg/kg daily and 20 μg/kg TIW) or placebo which formed the intent-to-treat population (ITT). Mean duration of treatment was at least 26 days for each of the treatment groups. The treatment groups were similar in demographic characteristics except for slight differences in age. Baseline characteristics of RA Disease Activity were similar for treatment groups.

[3] = test system: TNFα, IL-1β, soluble TNF p55 and p75 receptors, IL-1 receptor antagonist; assay: Ex-vivo induced proinflammatory cytokines and circulating soluble TNF receptors / IL-1 receptor antagonist; settings: nearly all IL-10 treatment groups compared with placebo, plus MTX
Experimental: as §2
The primary objective was to evaluate, in a dose-escalating manner, the safety and tolerance of IL-10 (SC) therapy given daily or TIW plus MTX (oral/intramuscular/SC) over a 28 day period to patients with active rheumatoid arthritis. The secondary objectives were to evaluate the effect of IL-10 on measures of rheumatoid arthritis Disease Activity, and to determine changes in the circulating levels of soluble p55 and p75 TNF receptors and IL-1 receptor antagonist. […]

[4] = each IL-10 dose group plus MTX versus placebo plus MTX

For “IL-10: a cytokine produced by T lymphocytes; protein with sequence substantially identical to mature IL-10; most preferably recombinant human IL-10”, the safety and tolerance ([1]; IL-10 SC 1-20 μg/kg daily or TIW for 28 days plus stable MTX 12.5-25 mg/week) was “generally well tolerated; also recorded: safe and well tolerated”, the “most frequently reported adverse events” value ([1]; IL-10 SC for 28 days plus stable MTX) was “headache, injection site reaction, nausea, musculoskeletal pain, with no dose-response relationship seen” and the “anti-dsDNA or anti IL-10 antibodies” value ([1]; IL-10 SC for 28 days plus stable MTX, any time during the study) was “No anti-dsDNA or anti IL-10 antibodies were present”. The “effects on rheumatoid arthritis Disease Activity (conclusion)” value ([2]; IL-10 in combination with MTX, greatest for 8 μg/kg TIW, 8 μg/kg daily and 20 μg/kg TIW) was “may have beneficial effects”, the “protocol-defined response (percentage of responders)” value ([2]; after 28 days of dosing versus baseline, ITT population, compared with placebo plus MTX) was “trend toward a greater percentage of responders” and the “mean change from baseline for individual clinical measures of rheumatoid arthritis disease activity” value ([2]; after 28 days, compared with placebo plus MTX) was “generally showing a greater percentage of responders than in placebo group”. The “percent of patients having a 20% improvement in disease activity (ACR 20)” value [2, 4] was “higher for each of the IL-10 treatment groups than for the placebo group”, the “percent of patients having a 50% improvement in disease activity (ACR 50)” value [2, 4] was “higher for each of the IL-10 treatment groups than for the placebo group” and the “circulating serum levels of soluble TNF p55 and TNF p75 receptors and IL-1 receptor antagonists” value [3] was “trend towards increased circulating serum levels”. For the same substance, the “production of ex-vivo induced proinflammatory cytokines (TNFα and IL-1β)” value [3] was “trend towards decreased production”.
